The source of these data is patent publication US9873733B2, “Anti-staphylococcal antibodies” (priority 2012, dated 2018).

For experiment [1], the system named is Staphylococcus aureus clinical isolate 703. Nature of the experiment: Killing of clinical isolate 703 by daptomycin. The format is cell-based. To be noted: 11 μg/ml daptomycin, in the presence of the anti-lysozyme antibody. Here is the method: (§1) Overnight cultures of S. aureus SA113 Δspa were diluted in fresh MHB medium and adjusted to OD600 0.25 (˜1.5×10^7 cells). Antibodies were adjusted to a concentration of 1 mg/ml and 10 μl were applied per well of a 96 well plate and diluted in 90 μl of the adjusted cell suspension (final antibody concentration: 100 μg/ml). Cells were grown in the presence of anti-lysozyme antibody (control) or with the anti-MprF antibodies. Duplicates were employed for each assay. After 3 hours of incubation under shaking conditions at 37° C., optical density was determined, adjusted to OD600 0.025 in 500 μl ice cold PBS buffer. 80 μl of the adjusted cell suspension were diluted with 20 μl of antimicrobial substances to final concentrations of 22.5 μg/ml nisin. After incubation for 2 hours under shaking conditions at 37° C., the cell suspensions were diluted 1:2000 and 100 μl of each duplicate was plated in triplicates on TSB medium containing agar plates to obtain a representative value of bacterial survival. Cells treated without antimicrobial substance were set at 100% and survival values were calculated with cells treated with antimicrobial substances. At least three independent assays were employed.
In this experiment killing of Staphylococcus aureus clinical isolate 703 (described in Jones et al., AAC 2008) by daptomycin in the presence of an MprF specific antibody was analyzed. […]

Experiment [2] has the same test system. To be noted: Jones et al., AAC 2008; cited from earlier work.
For the next experiment, the system named is S. aureus SA113. Nature of the experiment: Growth inhibition assay with nisin. The experiment is classed as cell-based, Staphylococcus aureus. Particulars: nisin 6 μg/ml. As for the experimental part:
(§2) Therefore S. aureus (S. aureus SA113) cells grown to mid-log phase were used to inoculate fresh TSB medium. These cultures were mixed with anti-MprF (1 μM) antibody or control IgG respectively or with anti-MprF (1 μM) antibody or control IgG in combination with nisin (6 μg/ml). The growth of the S. aureus in presence of anti-MprF antibody was monitored in culture plates shaking at 37° C. by measuring OD600. […] (FIG. 7)

The test system of experiment [3] is Staphylococcus aureus clinical isolate USA300 (MRSA). Nature of the experiment: Growth inhibition of clinical isolate USA300 by nisin. The experiment is classed as cell-based. To be noted: nisin 4.5 μg/ml. Here is the method:
as §2
In this experiment growth inhibition of Staphylococcus aureus clinical isolate USA300 by nisin was tested in the presence of an MprF specific antibody.
The experiment was performed as described in Example 5. Instead of S. aureus SA113 the clinical isolate S. aureus USA300 was used. The concentration of nisin was 4.5 μg/ml instead of 6 μg/ml nisin.

Experiment [4] concerns MprF on S. aureus (Protein A deletion mutant, delta spa). Nature of the experiment: Whole cell ELISA on S. aureus. The experiment is classed as binding, Staphylococcus aureus. Particulars: E. coli as negative control. As for the experimental part:
(§3) The specificity of the purified antibodies was tested for binding to whole cell Staphylococcus aureus in an ELISA assay. Escherichia coli bacteria were used as a negative control.
(§4) For ELISA on S. aureus the Protein A deletion mutant (delta spa) or the mutant with an additional deletion in MprF (delta spa delta mprf) were grown to mid log phase, than washed in PBS and resuspended in saline to a final OD600 of 0.6. This bacterial culture was coated on Maxisorp plates (Nunc). Plates were blocked with 2% BSA/PBS and washed with TSB containing 0.5% TWEEN20.

Experiment [5] deals with linear peptide representing loop 1 of MprF (Staphylococcus aureus, UniProt Q2G2M2). Particulars: IgG at various concentrations; peptide 5 μg/ml. As for the experimental part:
(§5) The IgGs were tested for binding to the antigen, which was used in their selection. Also binding to other MprF-peptides was tested to check for selectivity.
MprF-specific IgGs were detected using goat-anti-human IgG (Sigma).
(§6) In both cases washing was performed using PBST ([…] with 0.05% TWEEN20. Detection was performed using alkaline phosphatase coupled Goat anti-human IgG (Sigma Cat. # A-8542 and Attophos™ substrate Roche, Cat. #11681982001). Fluorescence was measured at an excitation of 440±25 nm and an emission of 550±35 nm. Full signal intensity is typically reached after 5-15 min at room temperature.

In experiment [6] the test system is S. aureus mutants lacking MprF expression (delta spa delta mprF). Nature of the experiment: Whole cell ELISA on S. aureus mutant lacking MprF. The format is binding, Staphylococcus aureus. Particulars: compared with delta spa. As for the experimental part:
as §3, §4
(In general: An ELISA detects its analyte on a solid surface through an enzyme-linked reagent.)

In a further experiment the test system is S. aureus SA113 Δspa. Nature of the experiment: Killing of S. aureus by nisin with MprF antibodies. The experiment is classed as cell-based, Staphylococcus aureus. Particulars: antibody 100 μg/ml, 22.5 μg/ml nisin, 2 hours; anti-lysozyme antibody as control. As for the experimental part:
In this experiment killing of Staphylococcus aureus was tested. Nisin was used as an exemplary cationic antimicrobial compound. Nisin was tested in combination with selected antibodies of the present invention. An anti-lysozyme antibody was used as a negative control.
as §1

The target in experiment [7] is cyclic peptide representing loop 4 of MprF (Staphylococcus aureus, UniProt Q2G2M2). To be noted: IgG in PBS; biotinylated cyclic peptide 5 μg/ml. Here is the method: as §5
(§7) For ELISAs with cyclic antigen, the biotinylated cyclic peptides (final conc. 5 μg/ml) were incubated with IgGs in PBS. Then the mix was transferred to a pre-blocked Neutravidin plate (Thermo Scientific), incubated and then the plate was washed with PBS containing 0.5% of TWEEN20. MprF-specific IgGs were detected using goat-anti-human IgG (Sigma).
as §6

Experiment [8] concerns the target cyclic peptide representing loop 6 of MprF (Staphylococcus aureus, UniProt Q2G2M2). Particulars: IgG in PBS; biotinylated cyclic peptide 5 μg/ml. Here is the method: as §5, §7, §6
Experiment [9] deals with cyclic peptide representing loop 5 of MprF (Staphylococcus aureus, UniProt Q2G2M2). Particulars: IgG in PBS; biotinylated cyclic peptide 5 μg/ml. As for the experimental part:
as §5, §7, §6

Sequence of linear peptide representing loop 1 of MprF (Q2G2M2 31-50, looked up, natural form): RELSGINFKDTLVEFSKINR

As for `CCCCCCCCCC(=O)N[C@@H](Cc1c[nH]c2ccccc12)C(=O)N[C@H](CC(N)=O)C(=O)N[C@@H](CC(=O)O)C(=O)N[C@@H]1C(=O)NCC(=O)N[C@@H](CCCN)C(=O)N[C@@H](CC(=O)O)C(=O)N[C@H](C)C(=O)N[C@@H](CC(=O)O)C(=O)NCC(=O)N[C@H](CO)C(=O)N[C@@H]([C@H](C)CC(=O)O)C(=O)N[C@@H](CC(=O)c2ccccc2N)C(=O)O[C@@H]1C` [daptomycin, reference compound], the “Effect of daptomycin on S. aureus 703” value in experiment [1] is listed as “no effect on S. aureus 703”. For the same molecule, the “Responsiveness of S. aureus clinical isolate 703 to daptomycin” value in experiment [2] is recorded as “non-responsive to daptomycin”.
Turning to nisin, in the experiment with S. aureus SA113, the “Growth of S. aureus (OD600), nisin alone” value is listed as “an effect of nisin alone in terms of reducing growths of bacteria was observable”. Also, the “Growth of S. aureus USA300, nisin alone” value in [3] is listed as “an effect of nisin alone in terms of reducing bacterial growths was observed”.

B1: M-L1: human IgG1 against linear peptide, loop 1 of MprF; VH1A kappa 3; VL Seq. ID: 14, VH Seq. ID: 15 (antibody, V domains shown)
VH: QVQLVQSGAEVKKPGSSVKVSCKASGGTFNSYAIHWVRQAPGQGLEWMGGIIPIFGIANYAQKFQGRVTITADESTSTAYMELSSLRSEDTAVYYCARDQYTYDYYRAFDYWGQGTLVTVSS
VL: DIVLTQSPATLSLSPGERATLSCRASQSVRDNLAWYQQKPGQAPRLLIYGASNRATGIPARFSGSGSGTDFTLTISSLEPEDFAVYYCQQYDHSPRTFGQGTKVEIKRT
modifications: ML1 VH; ML1 VL
notes: human IgG1 against linear peptide, loop 1 of MprF; VH1A kappa 3; ID: 15
For the molecule B1, the “Binding to whole cell S. aureus (ELISA)” value in [4] was “detect MprF on S. aureus”. For the same molecule, the “Specific binding to linear loop 1 peptide (ELISA)” value in experiment [5] was “specifically bind to linear loop 1 peptide in a dose-dependent manner”. For the same molecule, the “Binding to S. aureus mutants lacking MprF expression (ELISA)” value in [6] is listed as “significantly weaker binding”.

B2: M-C4.2: human IgG1 against cyclic peptide, loop 4 of MprF; VH3-23 kappa 1; VL Seq. ID: 54, VH Seq. ID: 55 (antibody, V domains shown)
VH: EVQLLESGGGLVQPGGSLRLSCAASGFTFSSYAMHWVRQAPGKGLEWVSVISSVGSSTYYADSVKGRFTISRDNSKNTLYLQMNSLRAEDTAVYYCARGGLDVWGQGTLVTVSS
VL: DIQMTQSPSSLSASVGDRVTITCRASQDISKYLNWYQQKPGKAPKLLIYAASRLQSGVPSRFSGSGSGTDFTLTISSLQPEDFATYYCQQGDSTPFTFGQGTKVEIKRT
modifications: MC42 VH; MC42 VL
notes: human IgG1 against cyclic peptide, loop 4 of MprF; VH3-23 kappa 1; ID: 55
Take B2: the “Sensitivity of S. aureus towards nisin (killing, bacterial survival)” value (from here on “Sensitivity of S. aureus towards nisin”) in the experiment with S. aureus SA113 Δspa was “most pronounced effects”. Besides, the “Specific binding to cyclic loop 4 peptide (ELISA)” value in [7] is on record as “specifically bind to cyclic loop 4 peptide in a dose-dependent manner”.

B3: M-C6.2: human IgG1 against cyclic peptide, loop 6 of MprF; VH1A kappa 1; VL Seq. ID: 104, VH Seq. ID: 105 (antibody, V domains shown)
VH: QVQLVQSGAEVKKPGSSVKVSCKASGGTFSSYAISWVRQAPGQGLEWMGGIIPILGIANYAQKFQGRVTITADESTSTAYMELSSLRSEDTAVYYCARSLPYRSDLYGFSRWSYHRVGMDVWGQGTLVTVSS
VL: DIQMTQSPSSLSASVGDRVTITCRASQDISNTLNWYQQKPGKAPKLLIYAASTLQSGVPSRFSGSGSGTDFTLTISSLQPEDFATYYCQQVGSFPYTFGQGTKVEIKRT
modifications: MC62 VH; MC62 VL
notes: human IgG1 against cyclic peptide, loop 6 of MprF; VH1A kappa 1; ID: 105
B3: the “Sensitivity of S. aureus towards nisin” value with S. aureus SA113 Δspa is listed as “most pronounced effects”. In addition, in [8], the “Specific binding to cyclic loop 6 peptide (ELISA)” value is given as “specifically bind to cyclic loop 6 peptide in a dose-dependent manner”.

B4: M-C5.1: human IgG1 against cyclic peptide, loop 5 of MprF; VH1A kappa 1; VL Seq. ID: 74, VH Seq. ID: 75 (antibody, V domains shown)
VH: QVQLVQSGAEVKKPGSSVKVSCKASGGTFSSYAISWVRQAPGQGLEWMGGIVPIFGTANYAQKFQGRVTITADESTSTAYMELSSLRSEDTAVYYCARVRYGYWDVWGQGTLVTVSS
VL: DIQMTQSPSSLSASVGDRVTITCRASQDIANWLNWYQQKPGKAPKLLIYAASSLQSGVPSRFSGSGSGTDFTLTISSLQPEDFATYYCQQYISLPITFGQGTKVEIKRT
modifications: MC51 VH; MC51 VL
notes: human IgG1 against cyclic peptide, loop 5 of MprF; VH1A kappa 1; ID: 75
With B4, the “Sensitivity of S. aureus towards nisin” value with S. aureus SA113 Δspa is “most pronounced effects”. Besides, the “Binding to whole cell S. aureus (ELISA)” value in [4] is given as “detect MprF on S. aureus”. Further, in experiment [9], the “Specific binding to cyclic loop 5 peptide (ELISA)” value is “specifically bind to cyclic loop 5 peptide in a dose-dependent manner”. Also, the “Binding to S. aureus mutants lacking MprF expression (ELISA)” value in [6] is recorded as “significantly weaker binding”.
